The results in this text go back to the RNAGym collection of RNA variant scans (doi:10.7554/elife.80360).

Sequences and labels used below:
B1: HDV Ribozyme (parent)
chain: GGCCGGCAUGGUCCCAGCCUCCUCGCUGGCGCCGGCUGGGCAACAUUCCGAGGGGACCGUCCCCUCGGUAAUGGCGAAUGGGACCCA

In the data set the parent is B1. The data set is described as follows: self-cleavage, relative activity (ratio to wild type); higher = more cleavage; co-transcriptional.
As for G31U G81A, the self-cleavage was determined as 0.162. With G28U G67C, the self-cleavage was 0.0545.

Regarding C32U U69A, the self-cleavage was determined as 1.13. As to C19U U69G, the self-cleavage was 0.0692. G1C C21U: the self-cleavage is 0.

As to C44G G81A, the self-cleavage worked out at 0.277. In the case of C36U G68A, the self-cleavage was found to be 0.626. Next, C24A C58A: 0.863; A56U U79C: 0.429. In the case of C19U U23A, the self-cleavage amounted to 0.129. Turning to G29U C62U, the self-cleavage amounted to 0.0804. G17U A71C: the self-cleavage stood at 0.383.

Regarding C66A G76C, the self-cleavage stood at 0.976.

As for A16G G39A, the self-cleavage is 0.404.

As to U27A A71C, the self-cleavage is 1.03. On to G10C C22G, for which the self-cleavage is 0. Then G54A A56U, with 0.878; and G1A C84A, with 0; and U12G G52U, with 0.617. On to C63A U72C, for which the self-cleavage turned out to be 0.532. On to U37G G80C, for which the self-cleavage was found to be 0.0449. In the case of C41G U60G, the self-cleavage is 0.72. Consider C61A U79G, for which the self-cleavage was found to be 1.14. For the variant A43U U47C, the self-cleavage was 0.554. Take C22A C57U: the self-cleavage was 0.343. Turning to G1A C24A, the self-cleavage came to 0.119. Consider C4G C15A, for which the self-cleavage stood at 0.142. As for G17U U47G, the self-cleavage amounted to 0.35. Then G59C A70U, with 1.03. Take C36A C58G: the self-cleavage turned out to be 0.119.

Regarding A16G A42U, the self-cleavage was found to be 0.396. As to C36A G81C, the self-cleavage amounted to 0.102. On to A77G C86U, for which the self-cleavage stood at 0.886. Turning to C7G C15A, the self-cleavage worked out at 0. G76C G82U: the self-cleavage worked out at 0.326. Take C4A C30A: the self-cleavage turned out to be 0.0519.

For U69G C75U, the self-cleavage was 0.0615. On to G40C G52C, for which the self-cleavage worked out at 0.0573. In the case of G35U G55U, the self-cleavage was determined as 0.508. C14G U72A: the self-cleavage came to 0.383. Next, C49G U72A: 0.0692.

On to G11U C33U, for which the self-cleavage was 0.0997. For U9A U65A, the self-cleavage was 1.05. Then A8G C49G, with 1.27.

With G11A A16C, the self-cleavage came to 0.35. G2U C61G: the self-cleavage amounted to 0.0386. As to U12G C66G, the self-cleavage came out at 0.862.

A43C G82U: the self-cleavage turned out to be 0.0545. Take G6C A51U: the self-cleavage is 0.469. Next, C14G G76U: 0.985; C15U U65G: 0.914. Turning to G81C C86U, the self-cleavage worked out at 0.302. For the variant C24G C62G, the self-cleavage is 0.0415. For the variant G2U C49G, the self-cleavage worked out at 0.0329. Turning to U23C C26A, the self-cleavage stood at 1.11. In the case of G54U G81U, the self-cleavage amounted to 0.349. Next, C18A A70G: 0. Consider G10C C61A, for which the self-cleavage was 0.734. Turning to C3A G76U, the self-cleavage turned out to be 0.773. Consider C21G A78C, for which the self-cleavage came to 0.0462. For the variant A77U C84G, the self-cleavage is 0.403. Take A16C U47C: the self-cleavage stood at 0.95. With G11C U60G, the self-cleavage worked out at 0.256. For the variant G40U C84U, the self-cleavage worked out at 0.398. For the variant C14G A71U, the self-cleavage is 0.529. Turning to U20A A77C, the self-cleavage was determined as 0.151. Take U9A U46A: the self-cleavage turned out to be 0.743. On to A16G A83U, for which the self-cleavage was 0.415.

Regarding G10U G52A, the self-cleavage came out at 0.878.

With U12G U20C, the self-cleavage stood at 0. With C33G C57G, the self-cleavage came to 0.214. As for C19G G25C, the self-cleavage is 0.156. In the case of U23G C30U, the self-cleavage worked out at 0.203. With G25A C85G, the self-cleavage was found to be 0.237. As to G25A C85U, the self-cleavage was found to be 0.32. On to G52A C85A, for which the self-cleavage worked out at 1.03. On to G5C A77C, for which the self-cleavage came out at 0. Then C32G C36U, with 0.111. As to U20G A87C, the self-cleavage was 0.282. Next, C15U A77G: 1.14. For the variant C30A C41A, the self-cleavage was 0.429. Then C18U G38U, with 0.0875; and G10U G25C, with 0.111; and G2U G6C, with 0.106. Then G31C G67U, with 0.402; and G34C C75U, with 0.0405.

Consider C13G G54U, for which the self-cleavage came out at 0.0282. Next, C19U C75U: 0.0329. With C22U U47A, the self-cleavage was 0.584.

Consider C7G G67A, for which the self-cleavage was determined as 0.128. Regarding G38A U60G, the self-cleavage was 0.0386. A8U G55A: the self-cleavage is 0.749.

Regarding G54A A71U, the self-cleavage amounted to 0.912. In the case of C4A C21A, the self-cleavage turned out to be 0. As for G38A A51U, the self-cleavage was 0.268. As for C3A U37G, the self-cleavage worked out at 0.0685. Turning to C4A G55A, the self-cleavage was 0.3. Next, C41U G76A: 0.95; C14A U72G: 0.151. As to U20G A42G, the self-cleavage stood at 0.138. G2C U9C: the self-cleavage turned out to be 0.128.

On to G2A C3U, for which the self-cleavage worked out at 0.567. Next, G40U C49G: 0.888; A51C A71G: 0.918; U27A G53A: 0.646.

Take U46C G59U: the self-cleavage worked out at 0.962.

Take C7A G38A: the self-cleavage stood at 0.0639. For U20C G55U, the self-cleavage was determined as 0.199.

Take G1U A43U: the self-cleavage turned out to be 0.225. For A56C G80C, the self-cleavage turned out to be 0.189. Turning to C49U A70C, the self-cleavage stood at 0.782. As for C32G U69C, the self-cleavage turned out to be 0.0639. Regarding C14G C41G, the self-cleavage came out at 0.525.

In the case of U27C U46G, the self-cleavage was found to be 0.332. On to G17U C64A, for which the self-cleavage turned out to be 0.601. For G5C A51U, the self-cleavage was 0.298. Then G10C A43U, with 0.415; and C15A C41A, with 0.655; and G11U G25C, with 0.104. On to A16C U46G, for which the self-cleavage stood at 0.332. As to C4A G76A, the self-cleavage was 0.208. In the case of G11U G53C, the self-cleavage amounted to 0.284. Regarding U47A C85U, the self-cleavage amounted to 1.03. Turning to G52A A71U, the self-cleavage was determined as 0.923. In the case of G40U G82C, the self-cleavage was 0.157.

In the case of G82U C85G, the self-cleavage was found to be 0.446. G39C G68A: the self-cleavage is 0.241. Then C33U A56G, with 0.665.

Turning to G2A G25C, the self-cleavage is 0.0744. Next, C44G A51C: 0.447. On to G2U G31U, for which the self-cleavage was 0.0268. Regarding C48G G52U, the self-cleavage is 0.612.

As for C24A G68C, the self-cleavage turned out to be 0.628. Next, G11A C58U: 0.322. Consider U9C G76U, for which the self-cleavage stood at 1.05. For the variant G6A G52U, the self-cleavage is 0.694. In the case of U20G C64A, the self-cleavage is 0.178. Turning to C58U A77U, the self-cleavage worked out at 0.68.

On to C4A U12C, for which the self-cleavage was found to be 0.095. With U37A C84A, the self-cleavage worked out at 0.128.

On to G81A G82C, for which the self-cleavage worked out at 0.163. Consider C7G A16U, for which the self-cleavage was 0.0692. Then C58A A77C, with 0.482. In the case of G34U G53U, the self-cleavage was found to be 0.223. With U20A C58G, the self-cleavage is 0.158. Next, U65C G80U: 0.106; G59A G80C: 0.226. For the variant A43U G80U, the self-cleavage worked out at 0.173. For the variant C13A C33A, the self-cleavage worked out at 0.0396.

With C48A U72G, the self-cleavage was determined as 0.525. Regarding G10U C15A, the self-cleavage stood at 0.222. Consider G25U G35U, for which the self-cleavage turned out to be 0.147. On to G5C C7G, for which the self-cleavage was determined as 0. U60A U72C: the self-cleavage is 0.415. As for C36G C86A, the self-cleavage is 0.181. As to U20C C33A, the self-cleavage came to 0.0665. Next, C30A A71G: 0.517. As to C13G U69C, the self-cleavage stood at 0.111. In the case of C3G U12G, the self-cleavage turned out to be 0.32.

On to A8G C58A, for which the self-cleavage was 1.07.

For C85A C86U, the self-cleavage came to 1.05. For the variant G10A G17U, the self-cleavage is 0.525.

For U37C C85A, the self-cleavage came to 1.16.

In the case of C14A G40A, the self-cleavage is 0.706. As to G2C C75G, the self-cleavage is 0.0314. Next, C41A U72A: 0.906. Take C26A G76C: the self-cleavage was 1.08.
